This sample holds only a part of the variants without activity.
Tests used:
biotinyl-Ile-oxazolone = experiment: self-aminoacylation, catalytic enhancement (BIO) (fold over background); higher = more active; k-Seq, kA / k0A0; sequences stand for … in GGGAAUGGAUCCACAUCUACGAAUUC…UUCACUGCAGACUUGACGAAGCUG
Outline: (§1)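 Catalytic enhancement equals the median kA over the uncatalyzed rate, the latter read from the low-activity peak of a bimodal Gaussian fit. Values of kA came from fitting each sequence's fraction reacted to a pseudo-first-order model, with 1000 bootstraps. Reacted RNA was captured with streptavidin and quantified by triplicate qPCR and Illumina sequencing after 90 minutes at room temperature with 2–1250 μM biotinyl-aminoacyl-oxazolone and 0.43 μM mutagenized RNA pools bearing a 21-nt variable region.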

biotinyl-Val-oxazolone = experiment: self-aminoacylation, catalytic enhancement (BVO) (fold over background); higher = more active; k-Seq, kA / k0A0; sequences stand for … in GGGAAUGGAUCCACAUCUACGAAUUC…UUCACUGCAGACUUGACGAAGCUG
Outline: as §1

biotinyl-Trp-oxazolone = experiment: self-aminoacylation, catalytic enhancement (BWO) (fold over background); higher = more active; k-Seq, kA / k0A0; sequences stand for … in GGGAAUGGAUCCACAUCUACGAAUUC…UUCACUGCAGACUUGACGAAGCUG
Outline: as §1

biotinyl-Met-oxazolone = experiment: self-aminoacylation, catalytic enhancement (BMO) (fold over background); higher = more active; k-Seq, kA / k0A0; sequences stand for … in GGGAAUGGAUCCACAUCUACGAAUUC…UUCACUGCAGACUUGACGAAGCUG
Outline: as §1

biotinyl-Phe-oxazolone = experiment: self-aminoacylation, catalytic enhancement (BFO) (fold over background); higher = more active; k-Seq, kA / k0A0; sequences stand for … in GGGAAUGGAUCCACAUCUACGAAUUC…UUCACUGCAGACUUGACGAAGCUG
Outline: as §1

biotinyl-Leu-oxazolone = experiment: self-aminoacylation, catalytic enhancement (BLO) (fold over background); higher = more active; k-Seq, kA / k0A0; sequences stand for … in GGGAAUGGAUCCACAUCUACGAAUUC…UUCACUGCAGACUUGACGAAGCUG
Outline: as §1

Row | Sequence | self-aminoacylation (biotinyl-Ile-oxazolone) | self-aminoacylation (biotinyl-Val-oxazolone) | self-aminoacylation (biotinyl-Trp-oxazolone) | self-aminoacylation (biotinyl-Met-oxazolone) | self-aminoacylation (biotinyl-Phe-oxazolone) | self-aminoacylation (biotinyl-Leu-oxazolone)
1 | CCACUCUUCAGGCAAUCGGUC [Fam1B.1 aminoacylation ribozyme variant] | 1.31 | 1.49 | 1.23 | 1.34 | 0.929 | 1.33
2 | CCACUCUUCGAGCAAUCGGUC [Fam1B.1 aminoacylation ribozyme variant] | 1.19 | 1.24 | 1.32 | 1.03 | 0.996 | 0.964
3 | CCACUUCAAACAAUCCGUCUG [Fam1A.1 aminoacylation ribozyme variant] | 1.08 | 1.01 | 1.85 | 0.967 | 2.13 | 0.795
4 | CCACUUCAAACAAUCGGCCUG [Fam1A.1 aminoacylation ribozyme variant] | 4.3 | 4.05 | 145 | 4.68 | 425 | 7.46
5 | CCACUUCAAACAAUCGGUGUG [Fam1A.1 aminoacylation ribozyme variant] | 1.13 | 1.33 | 9.94 | 1.79 | 12.5 | 2.34
6 | CCACUUCAAACACUCGGUCUG [Fam1A.1 aminoacylation ribozyme variant] | 1.45 | 2.14 | 1.5 | 1.75 | 4.37 | 1.73
7 | CCACUUCAAACCAUCGGUCUG [Fam1A.1 aminoacylation ribozyme variant] | 1.31 | 1.29 | 1.16 | 0.947 | 1.49 | 1.24
8 | CCAGAAUUCAAGCAAUCGGUC [Fam1B.1 aminoacylation ribozyme variant] | 1.91 | 1.6 | 1.81 | 1.65 | 2.26 | 2.3
9 | CCAGACAUCAAGCAAUCGGUC [Fam1B.1 aminoacylation ribozyme variant] | 0.911 | 0.993 | 0.802 | 0.825 | 1.06 | 0.896
10 | CCAGACUUCAAGCAACCGGUC [Fam1B.1 aminoacylation ribozyme variant] | 1.47 | 1.36 | 2 | 0.698 | 1.53 | 1.02
11 | CCAGACUUCAAGCAAUCGGCC [Fam1B.1 aminoacylation ribozyme variant] | 3.33 | 3.43 | 6.87 | 4.19 | 17 | 4.53
12 | CCAGACUUCAAGCAAUCGGUA [Fam1B.1 aminoacylation ribozyme variant] | 1.41 | 1.4 | 1.75 | 1.66 | 1.22 | 1.16
13 | CCAGACUUCAAGCAAUCGGUG [Fam1B.1 aminoacylation ribozyme variant] | 4.56 | 4.1 | 7.25 | 6.21 | 29.2 | 8.51
14 | CCAGACUUCAAGCCAUCGGUC [Fam1B.1 aminoacylation ribozyme variant] | 1.34 | 1.46 | 1.33 | 1.17 | 0.714 | 1.24
15 | CCAUACUACAAGCAAUCGGUC [Fam1B.1 aminoacylation ribozyme variant] | 0.884 | 0.779 | 0.655 | 0.696 | 0.942 | 0.772
16 | CCAUACUUAAAGCAAUCGGUC [Fam1B.1 aminoacylation ribozyme variant] | 0.92 | 0.904 | 0.674 | 0.804 | 0.813 | 0.802
17 | CCAUACUUCAAGAAAUCGGUC [Fam1B.1 aminoacylation ribozyme variant] | 0.907 | 0.787 | 4.39 | 0.777 | 5.18 | 0.87
18 | CCAUACUUCAAGCAAGCGGUC [Fam1B.1 aminoacylation ribozyme variant] | 1.09 | 1.03 | 0.726 | 0.775 | 0.737 | 0.875
19 | CCAUACUUCAAGCAAUCGGAC [Fam1B.1 aminoacylation ribozyme variant] | 1.01 | 1.06 | 0.768 | 1.17 | 1.21 | 0.856
20 | CCAUACUUCAAGCAAUCGGUU [Fam1B.1 aminoacylation ribozyme variant] | 1.61 | 1.71 | 2.98 | 1.17 | 3.48 | 1.61
21 | CCAUACUUCAAGCAAUGGGUC [Fam1B.1 aminoacylation ribozyme variant] | 1.04 | 1 | 0.627 | 0.972 | 0.918 | 0.926
22 | CCAUACUUCAAGCACUCGGUC [Fam1B.1 aminoacylation ribozyme variant] | 1.01 | 1.07 | 0.69 | 0.904 | 1.11 | 0.962
23 | CCAUACUUCAAGCUAUCGGUC [Fam1B.1 aminoacylation ribozyme variant] | 1.05 | 1.09 | 0.697 | 0.801 | 0.984 | 0.952
24 | CCAUACUUCAAGGAAUCGGUC [Fam1B.1 aminoacylation ribozyme variant] | 0.976 | 0.934 | 3.57 | 1.06 | 3.91 | 1.07
25 | CCCAACUUCAAGCAAUCGGUC [Fam1B.1 aminoacylation ribozyme variant] | 1.56 | 1.74 | 40.9 | 1.49 | 78.4 | 2.34
26 | CCCCACCUCAAGCAAUCGGUC [Fam1B.1 aminoacylation ribozyme variant] | 1.73 | 2.2 | 4.87 | 1.48 | 5.97 | 1.48

Row | Sequence | self-aminoacylation (biotinyl-Ile-oxazolone) | self-aminoacylation (biotinyl-Val-oxazolone) | self-aminoacylation (biotinyl-Trp-oxazolone) | self-aminoacylation (biotinyl-Met-oxazolone) | self-aminoacylation (biotinyl-Phe-oxazolone) | self-aminoacylation (biotinyl-Leu-oxazolone)
27 | CCCCACUUCAAGCAAUCGGAC [Fam1B.1 aminoacylation ribozyme variant] | 1.45 | 1.52 | 2.45 | 1.44 | 2.8 | 1.19
28 | CCCCACUUCAAGCAAUCGGCC [Fam1B.1 aminoacylation ribozyme variant] | 2.74 | 3.8 | 11.3 | 3.04 | 20.8 | 2.75
29 | CCCCACUUCAAGCAAUCGGUG [Fam1B.1 aminoacylation ribozyme variant] | 6.57 | 7.84 | 12.5 | 11 | 75.4 | 13.9
30 | CCCCACUUCAAGCAAUCGGUU [Fam1B.1 aminoacylation ribozyme variant] | 2.66 | 3.68 | 16.9 | 3.35 | 12.7 | 4.7
31 | CCCCACUUCAAGCAAUCGUUC [Fam1B.1 aminoacylation ribozyme variant] | 0.898 | 0.849 | 1.12 | 0.697 | 1.77 | 0.697
32 | CCCCACUUCACGCAAUCGGUC [Fam1B.1 aminoacylation ribozyme variant] | 2.06 | 2.61 | 4.55 | 2.31 | 7.33 | 2.44
33 | CCCCACUUCAGGCAAUCGGUC [Fam1B.1 aminoacylation ribozyme variant] | 2.56 | 2.64 | 5.21 | 2.35 | 9.29 | 2.63
34 | CCGCACUACAAGCAAUCGGUC [Fam1B.1 aminoacylation ribozyme variant] | 1.33 | 1.32 | 1.36 | 0.932 | 1.55 | 1.02
35 | CCGCACUUCAACCAAUCGGUC [Fam1B.1 aminoacylation ribozyme variant] | 2.09 | 2.38 | 67.5 | 2.05 | 148 | 3.41
36 | CCGCACUUCAAGCAAUCGGAC [Fam1B.1 aminoacylation ribozyme variant] | 1.07 | 1.12 | 1.86 | 1 | 1.31 | 0.812
37 | CCGCACUUCAAGCGAUCGGUC [Fam1B.1 aminoacylation ribozyme variant] | 1.34 | 1.8 | 4.81 | 1.53 | 2.22 | 1.3
38 | CCUAACUUCAAGCAAUCGGUC [Fam1B.1 aminoacylation ribozyme variant] | 1.18 | 1.01 | 19.9 | 1.02 | 46.5 | 1.54
39 | CCUCACUCCAAGCAAUCGGUC [Fam1B.1 aminoacylation ribozyme variant] | 1.03 | 0.947 | 2.39 | 0.767 | 5.18 | 0.915
40 | CCUCACUGCAAGCAAUCGGUC [Fam1B.1 aminoacylation ribozyme variant] | 1.26 | 1.41 | 1.17 | 0.832 | 1.44 | 1.24
41 | CCUCACUUCAAGGAAUCGGUC [Fam1B.1 aminoacylation ribozyme variant] | 0.76 | 0.869 | 4.27 | 0.946 | 6.28 | 0.936
42 | CCUCACUUCAUGCAAUCGGUC [Fam1B.1 aminoacylation ribozyme variant] | 0.734 | 0.773 | 0.804 | 0.642 | 1.17 | 0.735
43 | CCUCAUUUCAAGCAAUCGGUC [Fam1B.1 aminoacylation ribozyme variant] | 1.11 | 1.05 | 2.75 | 1.07 | 5.96 | 1.08
44 | CCUGACUUCAAGCAAUCGGUC [Fam1B.1 aminoacylation ribozyme variant] | 1.22 | 1.35 | 23.1 | 1.17 | 45.6 | 1.63
45 | CCUUACUUCAAGCAAUCGGUC [Fam1B.1 aminoacylation ribozyme variant] | 1.09 | 1.08 | 13 | 1.06 | 31.6 | 1.3
46 | CGACACUCCAAGCAAUCGGUC [Fam1B.1 aminoacylation ribozyme variant] | 1.11 | 1.11 | 1.19 | 0.665 | 0.914 | 0.842
47 | CGACACUUCAAGCAAUUGGUC [Fam1B.1 aminoacylation ribozyme variant] | 0.908 | 0.718 | 0.777 | 0.864 | 0.985 | 0.668
48 | CGACACUUCAAGCACUCGGUC [Fam1B.1 aminoacylation ribozyme variant] | 1.28 | 1.32 | 2 | 1.38 | 1.46 | 1.3
49 | CGACACUUCAAGCAGUCGGUC [Fam1B.1 aminoacylation ribozyme variant] | 1.25 | 0.99 | 1.74 | 1.64 | 1.04 | 1.23
50 | CGACACUUCAAGUAAUCGGUC [Fam1B.1 aminoacylation ribozyme variant] | 1.69 | 1.47 | 2.28 | 1.5 | 3.36 | 1.16
51 | CGACACUUCAAUCAAUCGGUC [Fam1B.1 aminoacylation ribozyme variant] | 1.04 | 1.05 | 7.59 | 0.958 | 14.7 | 1.15

Reference: the supplement of paper PMC9233669
